For this assay, the target named is HIV-1 Rev (HIV-1, UniProt P04618).

Bounds are passed on as bounds.

HIV-1 Rev, sequence (P04618 whole entry): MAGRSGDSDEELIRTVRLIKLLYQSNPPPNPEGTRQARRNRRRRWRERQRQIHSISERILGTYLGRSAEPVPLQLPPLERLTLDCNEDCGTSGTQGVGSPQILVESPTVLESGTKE

B1: anti-Rev Fab (chimeric rabbit/human) (Fab, V domains shown)
VH: QEQLVESGGRLVTPGTALTLTCKVSGFSLSGFWLNWVRQAPGKGLEWVGAIYRGSGSEWYASWAKGRFTISDTSTTVTLKLTSPTTEDTATYFCAADTTDNGYFTIWGPGTLVTVSS
VL: ELVMTQTPSSVSEPVGGTVTIKCQASQSISSWLSWYQQKPGQPPKLLIYDASNLASGVPSRFMGSGSGTEYTLTISGVQREDAATYYCLGGYPAASYRTAFGGGTELEII
With B1, the Kd (as a rule, the equilibrium constant for the complex coming apart) is less than 0.1 nM and the stoichiometry N (commonly a count of units in the complex or per binding partner) turned out to be 1.

The values are drawn from article PMC4175418 (Methods in molecular biology (Clifton, N.J.), 2014).
